The target in assay [1] is HLA-A*0201 (human). The experiment in a line: competitive inhibition of 125I-labelled standard peptide binding to purified HLA, gel filtration.
Assay [2] concerns the target HLA-A*0202 (human). The description is as above.
In assay [3] the target is HLA-A*0203 (human). The description is as above.
Assay [4] addresses HLA-A*0206 (human). The description is as above.
In assay [5] the target is HLA-A*0201 (human). Description: competition with 125I-labeled probe peptide for purified HLA, gel filtration.
Assay [6] deals with HLA-A*0206 (human). The assay is described as above. The note with it: remark: other sources report otherwise.
Assay [7] addresses HLA-A*6802 (human). Described as above.
Assay [8] concerns the target HLA-A*0301 (human). Description: competition with radiolabeled standard peptide on purified HLA-A*0301, gel filtration. The note with it: scale: ratio. Background: SEC sorts molecules by how far they enter the pores of the column.
The target of assay [9] is HLA-A*0202 (human). Description: competition with 125I-labeled probe peptide for purified HLA, gel filtration.
Assay [10] deals with HLA-A*0301 (human). The experiment in a line: competition with 125I-labeled standard peptide for purified HLA-A*0301, gel filtration.
Assay [11] deals with HLA-A*0201 (human). The experiment in a line: inhibition of 125I-labelled probe peptide binding to purified HLA; gel filtration.
Assay [12] has as its target HLA-A*0202 (human). The description is as above.
Assay [13] concerns the target HLA-A*0206 (human). The description is as above.
Assay [14] deals with HLA-A*6802 (human). The experiment in a line: competition with 125I standard peptide for purified HLA; gel filtration.
Assay [15] deals with HLA-A*0203 (human). Description: inhibition of 125I-labelled probe peptide binding to purified HLA; gel filtration.
In assay [16] the target is HLA-A*6802 (human). The assay is described as above.
The target of assay [17] is HLA-A*0201 (human). The experiment in a line: competition with 125I standard peptide for purified HLA; gel filtration.
The target of assay [18] is HLA-A*0202 (human). Described as above.
For assay [19], the target named is HLA-A*0203 (human). Described as above.
The target of assay [20] is HLA-A*0206 (human). Described as above.
Assay [21] addresses HLA-A*0203 (human). Description: competitive inhibition of 125I-labelled standard peptide binding to purified HLA.
The target of assay [22] is HLA-A*0201 (human). The experiment in a line: inhibition of 125I probe peptide binding to purified HLA, gel filtration; ratio = IC50 standard/IC50 test. The note with it: remark: other sources report otherwise.
Assay [23] addresses HLA-A*0202 (human). Described as above. Particulars: remark: other sources report otherwise.
For assay [24], the target named is HLA-A*0201 (human). The experiment in a line: competitive inhibition of 125I-labelled standard peptide binding to purified HLA, gel filtration; ratio = IC50 standard / IC50 test peptide. Particulars: remark: other sources report otherwise.
Assay [25] concerns the target HLA-A*0203 (human). The description is as above. The note with it: remark: other sources report otherwise.
The target in assay [26] is HLA-A*0202 (human). The experiment in a line: competition for purified HLA with 125I-labelled standard peptide 941.01 [..] as competitor, gel filtration. Particulars: remark: other sources report otherwise; scale: ratio.
In assay [27] the target is HLA-A*0201 (human). The experiment in a line: competition with 125I-labelled standard peptide 941.01 for purified HLA-A*0201, gel filtration.
In assay [28] the target is HLA-A*0202 (human). The experiment in a line: competition with 125I-labelled standard peptide 941.01 for purified HLA-A*0202, gel filtration.
In assay [29] the target is HLA-A*0206 (human). Description: competition with 125I-labelled standard peptide 941.01 for purified HLA-A*0206, gel filtration.
Assay [30] concerns the target HLA-A*0201 (human). Description: competitive inhibition of 125I-labelled standard peptide binding to purified HLA.
The target in assay [31] is HLA-A*0202 (human). The description is as above.
For assay [32], the target named is HLA-A*0206 (human). The description is as above.
Setting [33] is: remark: other sources report otherwise.

Read-outs that look alike come from different tables or passages of the source.

For the molecule ITSWGSEPCAL (modifications not checked), the binding affinity ratio (ratio to standard peptide) in assay [1] (setting [33]) is 0.001; in assay [2] (setting [33]) it was 0.012; in [3] (setting [33]) it was 0.0096; in [4] (setting [33]), 0.0001.

In the case of GTPEGDLVYV (modifications not checked) [Peptide 1418.29 … (PSM.168.T2)], the IC50 amounted to 313 nM in [5] (setting [33]), 40 nM in assay [6] and 571 nM in assay [7] (setting [33]).

In the case of WATEDTMTK (modifications not checked) [PAP 226 peptide …], the binding affinity ratio in [8] was determined as 0.0006.

For LMYSLVHNL (modifications not checked) [Peptide 1126.14 … (PSM.469)], the IC50 amounted to 64 nM in [5], 0.4 nM in assay [9] and 320 nM in assay [7].

Turning to MSLLKNRFLR (modifications not checked) [… (PSA, position 99, 10 amino acids)], the binding affinity ratio (IC50 of standard peptide / IC50 of test peptide) in [10] amounted to 0.007.

With NLLHETDSA (modifications not checked) [… (PSM, position 3, 9 amino acids)], the binding affinity ratio (IC50 of standard peptide / IC50 of test peptide) in assay [10] stood at 0.0006.

In the case of PLLLWQPIPV (modifications not checked) [peptide 63.0042 (PAP.134.L2)], the concentration for half-maximal inhibition (IC50) in assay [11] (setting [33]) stood at 238 nM; in [12] (setting [33]), 47 nM; in assay [13] (setting [33]), 336 nM.

With KVTEFMLCV (modifications not checked) [Peptide 1418.21 … (HuK2.191.V9)], in assay [14] (setting [33]), the IC50 worked out at 6670 nM.

Consider ALFPPEGVSI (modifications not checked) [peptide 1419.6 (PAP.122)], for which the figures for the IC50 in assay [11] (setting [33]), in assay [15] (setting [33]) and in [13] (setting [33]) were 278 nM, 133 nM and 2640 nM, respectively.

As for TVSGLQMAV (modifications not checked) [peptide 60.0213 (PAP.292.V9)], the IC50 in [11] stood at 294 nM; in assay [12], 12 nM; in assay [15], 122 nM; in [13] it was 195 nM; in [16], 5.7 nM.

Consider KLRELSELSV (modifications not checked) [peptide 63.0048 (PAP.234.V10)], for which the IC50 in [11] (setting [33]) was 263 nM; in [16] (setting [33]) it was 1820 nM.

For GVSIWNPILV (modifications not checked) [peptide 63.0041 (PAP.128.V10)], the IC50 in assay [11] (setting [33]) was found to be 250 nM; in assay [12] (setting [33]), 94 nM; in assay [13] (setting [33]) it was 451 nM; in assay [16] (setting [33]), 2290 nM.

As for LLWQPIPVHV (modifications not checked) [peptide 1419.69 (PAP.136.V10)], the IC50 in assay [11] was 25 nM; in assay [12] it was 1.8 nM; in assay [15], 17 nM; in assay [16], 60 nM.

For the molecule ITSWGSEPCA (modifications not checked), the binding affinity ratio (ratio to standard peptide) was found to be 0.0003 in assay [1], 0.0036 in assay [2], 0.003 in [3] and 0.0001 in [4].

LVCNGVLQGV (modifications not checked) [Peptide 1418.55 … (HuK2.217.V10)]: the IC50 in [17] was 10 nM; in [18], 2.9 nM; in [19], 12 nM; in assay [20], 5.6 nM; in assay [14], 3.5 nM.

MLLRLSEPAEV (modifications not checked) [Peptide 1389.12, … (PSA.118.V11)] returned an IC50 in assay [21] (setting [33]) of 115 nM.

On to AAHCIRNKSVI (modifications not checked) [… (PSA, position 59)], for which the binding affinity ratio turned out to be 0.001 in [22] and 0.01 in assay [23].

On to VLPFDCRDYA (modifications not checked) [PSM 592 peptide …], for which, in assay [8], the binding affinity ratio was 0.0005.

Turning to LLSNDMCARV (modifications not checked) [Peptide 1418.53 … (HuK2.178.V10)], the IC50 in assay [17] (setting [33]) came to 5.3 nM; in assay [18] (setting [33]) it was 0.7 nM; in assay [19] (setting [33]), 4.3 nM; in [20] (setting [33]), 10 nM; in [14] (setting [33]), 1700 nM.

In the case of ITSWGPEPCA (modifications not checked) [… (Kallikrein, position 226)], the binding affinity ratio (ratio to standard peptide) in [1] (setting [33]) worked out at 0.0003; in assay [2] (setting [33]) it was 0.01; in assay [4] (setting [33]), 0.0005.

In the case of VTKFMLCAGR (modifications not checked) [PSA 188 peptide …], the binding affinity ratio in assay [8] (setting [33]) is 0.0003.

In the case of VLTAAHCIR (modifications not checked) [PSA 56 peptide …], the binding affinity ratio in [8] was 0.0002.

Regarding VLSIALSV (modifications not checked) [VLSIALSV (Kallikrein, position 5)], the binding affinity ratio in [24] was 0.005; in [25], 0.02.

As for IALSVGCTGA (modifications not checked) [… (Kallikrein position 8, 10-mer)], the binding affinity ratio in [26] turned out to be 0.05.

Consider SIALSVGCT (modifications not checked) [… (Kallikrein, position 7)], for which the figures for the binding affinity ratio (IC50 of standard peptide / IC50 of test peptide) in [27], in assay [28] and in [29] were -0.0001, 0.0006 and 0.0006, respectively.

LLWQPIPVHV (modifications not checked) [Peptide 1419.69 … (PAP.136.V10)]: the IC50 in assay [17] was found to be 25 nM; in [18], 1.8 nM; in [19] it was 17 nM; in assay [14], 60 nM.

ITDVVKVL (modifications not checked) [ITDVVKVL (Kallikrein, position 132)]: the binding affinity ratio (ratio to standard peptide) in assay [1] was 0.0001; in [2], 0.001; in [3] it was 0.0001; in assay [4], -0.0001.

As to LVFRHGDR (modifications not checked) [LVFRHGDR (PAP, position 40, 8 amino acids)], the binding affinity ratio (IC50 of standard peptide / IC50 of test peptide) in assay [10] came out at 0.0003.

On to NFTEIASKF (modifications not checked) [… (PSM, position 638, 9 amino acids)], for which the binding affinity ratio (IC50 of standard peptide / IC50 of test peptide) in assay [10] turned out to be 0.0005.

FLTLSVTWIGV (modifications not checked) [Peptide 63.0186, … (PSA.3.V11)]: the half-maximal inhibitory concentration (IC50) in [30] amounted to 6.8 nM; in assay [31], 3 nM; in assay [21] it was 18 nM; in assay [32], 65 nM.

For orientation: IC50 means the point on the concentration scale where inhibition reaches its midpoint.

The record behind these values is patent US20070020327A1.
